The series is described as follows: label from the status in PepcDB records.
As to “MIDMEQDNRNQINGENISNASAGGTQPEQNTQSSQNMHPEQTGQGTQQDSLYHYSYMNNKGDARFDRPAGETSQQRMGAQTQNMRETANVQGGTQNTAYSGFQRNVNGMEAWYDSQRMNAGYQNPENNVGGYGQGSQSVPHKTETSHKHEKQPKPKKNSGKKSGVGKKVAGVVAAAVVFGLVAGVVFQGVRYGSDKMLNKNSATTEASADATTENNAPQLKQASSDATNTVYDVATVAQKVMPSIVSITGTYVTTYDYWFNSYQQESTGAGSGIIIGKDDQYLYLATNYHVVQNAKSLSVTFVNDKSADATVKGYVENNDIAVVTVKLADISDDTLNEIKEIQVGSSDDLSVGDPCVAIGNALGYGQSVTVGYISALNREISASDETVKVLQTDAAINPGNSGGALVNMQGELIGINTAKYSDTSVEGMGYALPISDIQDIINDLIAGKKVASDGTASGQAYLGISAQTITSQYSQLLNMPEGVYISSVEQGSAAEECGLQSGDIICSLDGEDIADMDTFHDRIVACKPGDKVTIVYYRNNNGNYEKQTTTATLQEKQ”, the protein production entry is on record as “failed”. As for “MKSQWECFLQNLGVWEGSFSNFSPEGTLLNDTSSRLCLEGLNNNQTVRLTLSRSGKDDVIREFRSVGGGLLFFENGSFSEGLIQLGPFSEFGGELAFVHENRRLRLVQLFDRNGHLNGLTLIREHLAGTPVAERPLLQINDLLGEWRGQAVTIYRDLRPPDIYSTTLKIQLDDAGRLMQSTSFGERTITSTATIKGSIVLFDQDPEKQVQVLLLPDGASATSPLKVQLRQPLFLEAGWLIQSDLRQRMIRSYNDKGEWVSLTLVTEERV”, the entry is “not failed”. To “MVPSASDAWRTALRDLRETLPERTVQNWLDPIQPLDLSTDEGSPTLTLQVPTPFGIQYLRSRFQRSIRQAVSEAVGEPTDVTYQVAPEEERPDEIATDSGSSGSAPDEPDASSSPQDRPSSAPSSDQAGRSSTSPRPSEPVSSSSPAGREAINQSPSPDASTSGGASSPTGPTTPRPSSPDVADVSDAGRTDDASAPSPPQTDAGSPDERSALYEQAKQHLRPEYTFDEFVEGDGNRLARSAAFAVAQEPGSTNYNPLLVYGGVGLGKTHLAQAVANYALEHNTAERVLYVSSDRFTSQFVQSVRENRIAAFSSYYRQADLLIVDDVQFFGEKEKTQEEFFHIFNDLHQNGKQIFLCADRPPAEIPGIEERLLSRFQWGLSADIQRPDLETRIAILQRKAARQDIAVSPDVLELIAQRIDSNVRQLEGALTRLTALVQLDDRTLDLDTARRFLREHTDEGADALNADDIIEQVAEYFRLEKGDLLSRSRKQTVAQARQIAMYLCRELTDESYDHIGSRFGGRDHSTVIHAYRKIEEDLESDTELQDDISSLQSNLQDRSLSSSL” belongs “failed”; to “MIISSLTNPNFKVGLPKVIAEVCDYLNTLDLNALENGRHDINDQIYMNVMEPETAEPSSKKAELHHEYLDVQVLIRGTENIEVGATYPNLSKYEDYNEADDYQLCADIDDKFTVTMKPKMFAVFYPYEPHKPCCVVNGKTEKIKKLVVKVPVKLI”, “not failed”. As for “MEDLKGSHGLGLKIQLSRVCEVKPEVKPLPAGETPSCGFARLDRRCLCGHRATLIPLGLPIAPRPPPSRCPFLKPSLPYVPGPEYGKQRPSCPVPIMSEVTKELLELVWGTKSSPGLSDTIFCRWTQGFVFSDSEGSALEQFEGGPCAVIAPVQAFLLKKLLFSSEKSSWRDCSEDEQKELLCHTLCDILESACDSSGSYCMVSWLRGRTTEDAARISGSPAQSSCQVGHSSALAVEELGFERFHALIQKRSFRTVSELKDAVLDQYSMWGNKFGVLLFLYSVLLTKGIENIKNSIEDANEPLIDPVYGHGSQSLINLLLTGHAVSNVWDGDRECSGMQLLGIHEQATVGFLTLMEALRYCKVGSYLKSPKFPIWIVGSETHLTVFFAKDMALVAPEAPSEQARRVFQTYDPEDNGFIADTLLEDVMKALDLVSDPEYINLMKNKLDPEGLGIILLGPFLQEFFPDQGSSGPESFTVYHYNGLKQSNYNEKVMYVEGTAVVMGFEDPMLQTDDTPIKRCLQTKWPYIELLWTTDRSPSLN”, the entry is “failed”.

The values are drawn from a protein production outcome set (Wang et al. 2014).
